In patent publication US7067474B1, “Agents for treating human illnesses based on β-catenin, and the production and use thereof” (Max-Delbruck-Centrum fur Molekulare Medizin, priority 1998, dated 2006):
“Also recorded” adds a separate entry of the source.

T1: APC (20 amino acid repeats) (Homo sapiens, UniProt P25054)
T1 construct: for the amino acids Ser1259Asp 1400 (APC 20 amino acid repeats); expressed in transfected cells; host or cells: yeast (two-hybrid, Matchmaker, Clontech)
T1 sequence (P25054 1253-1394 limits assumed): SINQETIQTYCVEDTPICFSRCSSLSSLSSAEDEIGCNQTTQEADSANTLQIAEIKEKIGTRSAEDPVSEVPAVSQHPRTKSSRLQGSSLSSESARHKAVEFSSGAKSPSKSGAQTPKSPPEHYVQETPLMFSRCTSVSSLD

T2: APC (15 amino acid repeats) (Homo sapiens, UniProt P25054)
T2 construct: of human APC for the amino acids His1012–Glu1215 (APC 15 amino acid repeats); expressed in transfected cells; host or cells: yeast (two-hybrid, Matchmaker, Clontech)
T2 sequence (P25054 1006-1209 limits assumed): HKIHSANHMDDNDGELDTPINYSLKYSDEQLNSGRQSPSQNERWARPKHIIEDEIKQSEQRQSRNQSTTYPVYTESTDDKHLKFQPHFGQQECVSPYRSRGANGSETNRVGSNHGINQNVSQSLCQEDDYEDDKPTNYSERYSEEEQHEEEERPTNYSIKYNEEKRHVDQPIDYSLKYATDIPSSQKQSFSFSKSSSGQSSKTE


Key:
[1] = molecular target: conductin amino acids Ala342-Arg465 fused to Lex-A (vector BTM 116) (UniProt P0A7C2); assay: yeast 2-hybrid, β-galactosidase reporter; percent of wild type β-catenin
Chain of conductin amino acids Ala342-Arg465 fused to Lex-A (vector BTM 116) (P0A7C2 other isoform, or with tags, fused parts or gaps limits assumed, form in doubt): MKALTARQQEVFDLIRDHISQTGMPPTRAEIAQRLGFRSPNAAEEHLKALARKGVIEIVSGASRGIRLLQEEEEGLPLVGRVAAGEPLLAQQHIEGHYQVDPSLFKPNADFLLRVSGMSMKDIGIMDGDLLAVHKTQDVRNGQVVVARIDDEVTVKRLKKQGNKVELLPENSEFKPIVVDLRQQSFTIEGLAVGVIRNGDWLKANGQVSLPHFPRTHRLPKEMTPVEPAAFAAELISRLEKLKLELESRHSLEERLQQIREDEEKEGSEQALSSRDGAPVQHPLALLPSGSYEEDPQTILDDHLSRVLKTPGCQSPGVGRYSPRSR

LEF-1 = molecular target: T3, LEF-1 (Mus musculus, UniProt P27782); assay: yeast 2-hybrid: interaction of β-catenin mutants with LEF-1; format: binding
T3 construct: the cDNA of LEF-1 for the amino acids 1–99; expressed in transfected cells; host or cells: yeast (two-hybrid, Matchmaker, Clontech)
T3 sequence (P27782 1-99): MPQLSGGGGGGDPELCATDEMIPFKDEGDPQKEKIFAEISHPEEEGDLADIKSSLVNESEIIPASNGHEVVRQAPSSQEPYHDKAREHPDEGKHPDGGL
Method: (§1) The mutagenesis of β-catenin in the armadillo repeats 3–8 was carried out by means of the “mutagenesis kit” of the company Clontech according to the producer's record and the mutants were checked by sequencing (FIG. 5). In all mutants the original amino acid was substituted by alanine. For analyzing the interactions the cDNA of human β-catenin (armadillo repeat 3 up to the C-terminal end of the protein) coding for the amino acids Leu218–Leu7 μl or its mutants was cloned into the fusion vector for the activation domain of Gal-4 (pGAD424, Clontech). The cDNA for the binding domains of the interaction partners was cloned into the Lex-A fusion vector BTM 116. To this end, the cDNA of LEF-1 for the amino acids 1–99, conductin for the amino acids Ala342–ARG465; of human APC for the amino acids His1012–Glu1215 (APC 15 amino acid repeats) and for the amino acids Ser1259Asp 1400 (APC 20 amino acid repeats) and E-cadherin for the amino acids Gin773–Asp884 (cytoplasmatic domain) were amplified with the respective primers PCR. The interaction of the Lex-A hybrids with β-catenin and its mutants was quantified by means of the β-galactosidase reporter activity in the yeast 2-hybrid system (report: “Matchmaker”. Clontech) (Tab. 2 and FIG. 6).

[2] = molecular target: T1, APC (20 amino acid repeats); assay: yeast 2-hybrid: interaction of β-catenin mutants with APC 20 amino acid repeats; format: binding; settings: yeast 2-hybrid, alanine mutants
Method: as §1

[3] = molecular target: T2, APC (15 amino acid repeats); assay: yeast 2-hybrid: interaction of β-catenin mutants with APC 15 amino acid repeats; format: binding; settings: yeast 2-hybrid, alanine mutants
Method: as §1

conductin = molecular target: T4, conductin (Mus musculus, UniProt O88566); assay: yeast 2-hybrid: interaction of β-catenin mutants with conductin; format: binding; settings: for Interaction With Conductin, share of wild type β-catenin interaction: yeast 2-hybrid, alanine mutants
T4 construct: conductin for the amino acids Ala342–ARG465; expressed in transfected cells; host or cells: yeast (two-hybrid, Matchmaker, Clontech)
T4 sequence (O88566 343-465 limits assumed): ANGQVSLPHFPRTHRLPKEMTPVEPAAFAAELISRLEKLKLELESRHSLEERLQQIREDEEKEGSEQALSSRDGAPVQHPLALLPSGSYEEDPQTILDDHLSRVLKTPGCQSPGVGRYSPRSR
Method: as §1

share of the interaction with wild type β-catenin in percent [1]	Interaction With APC-20, share of wild type β-catenin interaction [2]	Interaction With Conductin, share of wild type β-catenin interaction (conductin)	interaction with conductin (conductin; β-catenin mutation, in words)	Molecule	interaction with LEF-1/TCF-4 (LEF-1; β-catenin mutation, in words)	Interaction With APC-15, share of wild type β-catenin interaction [3]	Interaction With LEF-1, share of wild type β-catenin interaction (LEF-1; yeast 2-hybrid, alanine mutants)
42%	–	–	–	human β-catenin (Leu218-Leu781) mutant Lys 394 to alanine, Gal-4 activation domain fusion (from UniProt P35222 218-781)	–	–	–
36%	–	–	–	human β-catenin (Leu218-Leu781) mutant Arg 457 to alanine, Gal-4 activation domain fusion (from UniProt P35222 218-781)	–	–	–
–	40%	10%	–	His 260: human β-catenin mutant, His 260 substituted by alanine (arm 3) (protein, left off: large carriers; small tags and cut ends) LHNLSHHREGLLAIFKSGGIPALVKMLGSPVDSVLFYAITTLANLLLHQEGAKMAVRLAGGLQKMVALLNKTNVKFLAITTDCLQILAYGNQESKLIILASGGPQALVNIMRTYTYEKLLWTTSRVLKVLSVCSSNKPAIVEAGGMQALGLHLTDPSQRLVQNCLWTLRNLSDAATKQEGMEGLLGTLVQLLGSDDINVVTCAAGILSNLTCNNYKNKMMVCQVGGIEALVRTVLRAGDREDITEPAICALRHLTSRHQEAEMAQNAVRLHYGLPVVVKLLHPPSHWPLIKATVGLIRNLALCPANHAPLREQGAIPRLVQLLVRAHQDTQRRTSMGGTQQQFVEGVRMEEIVEGCTGALHILARDVHNRIVIRGLNTIPLFVQLLYSPIENIQRVAAGVLCELAQDKEAAEAIEAEGATAPLTELLHSRNEGVATYAAAVLFRMSEDKPQDYKKRLSVELTSSLFRTEPMAWNETADLGLDIGAQGEPLGYRQDDPSYRSFHSGGYGQDALGMDPMMEHEMGGHHPGADYPVDGLPDLGHAQDLMDGLPPGDSNQLAWFDTDL	–	–	–
–	0%	22%	–	Lys 345: human β-catenin mutant, Lys 345 substituted by alanine (arm 5) (protein, left off: large carriers; small tags and cut ends) LHNLSHHREGLLAIFKSGGIPALVKMLGSPVDSVLFYAITTLHNLLLHQEGAKMAVRLAGGLQKMVALLNKTNVKFLAITTDCLQILAYGNQESKLIILASGGPQALVNIMRTYTYEKLLWTTSRVLAVLSVCSSNKPAIVEAGGMQALGLHLTDPSQRLVQNCLWTLRNLSDAATKQEGMEGLLGTLVQLLGSDDINVVTCAAGILSNLTCNNYKNKMMVCQVGGIEALVRTVLRAGDREDITEPAICALRHLTSRHQEAEMAQNAVRLHYGLPVVVKLLHPPSHWPLIKATVGLIRNLALCPANHAPLREQGAIPRLVQLLVRAHQDTQRRTSMGGTQQQFVEGVRMEEIVEGCTGALHILARDVHNRIVIRGLNTIPLFVQLLYSPIENIQRVAAGVLCELAQDKEAAEAIEAEGATAPLTELLHSRNEGVATYAAAVLFRMSEDKPQDYKKRLSVELTSSLFRTEPMAWNETADLGLDIGAQGEPLGYRQDDPSYRSFHSGGYGQDALGMDPMMEHEMGGHHPGADYPVDGLPDLGHAQDLMDGLPPGDSNQLAWFDTDL	–	— (Interactions marked by — correspond to 60–100% of the wild type interaction)	–
–	40%	29%	no interaction with conductin	Arg 274: human β-catenin mutant, Arg 274 substituted by alanine (arm 4) (protein, left off: large carriers; small tags and cut ends) LHNLSHHREGLLAIFKSGGIPALVKMLGSPVDSVLFYAITTLHNLLLHQEGAKMAVALAGGLQKMVALLNKTNVKFLAITTDCLQILAYGNQESKLIILASGGPQALVNIMRTYTYEKLLWTTSRVLKVLSVCSSNKPAIVEAGGMQALGLHLTDPSQRLVQNCLWTLRNLSDAATKQEGMEGLLGTLVQLLGSDDINVVTCAAGILSNLTCNNYKNKMMVCQVGGIEALVRTVLRAGDREDITEPAICALRHLTSRHQEAEMAQNAVRLHYGLPVVVKLLHPPSHWPLIKATVGLIRNLALCPANHAPLREQGAIPRLVQLLVRAHQDTQRRTSMGGTQQQFVEGVRMEEIVEGCTGALHILARDVHNRIVIRGLNTIPLFVQLLYSPIENIQRVAAGVLCELAQDKEAAEAIEAEGATAPLTELLHSRNEGVATYAAAVLFRMSEDKPQDYKKRLSVELTSSLFRTEPMAWNETADLGLDIGAQGEPLGYRQDDPSYRSFHSGGYGQDALGMDPMMEHEMGGHHPGADYPVDGLPDLGHAQDLMDGLPPGDSNQLAWFDTDL	–	— (Interactions marked by — correspond to 60–100% of the wild type interaction)	— (Interactions marked by — correspond to 60–100% of the wild type interaction)

Molecule	share of the interaction with wild type β-catenin in percent [1]	Interaction With APC-20, share of wild type β-catenin interaction [2]	Interaction With Conductin, share of wild type β-catenin interaction (conductin)	interaction with conductin (conductin; β-catenin mutation, in words)	interaction with LEF-1/TCF-4 (LEF-1; β-catenin mutation, in words)	Interaction With APC-15, share of wild type β-catenin interaction [3]	Interaction With LEF-1, share of wild type β-catenin interaction (LEF-1; yeast 2-hybrid, alanine mutants)
Arg 469: human β-catenin mutant, Arg 469 substituted by alanine (arm 8) (protein, left off: large carriers; small tags and cut ends) LHNLSHHREGLLAIFKSGGIPALVKMLGSPVDSVLFYAITTLHNLLLHQEGAKMAVRLAGGLQKMVALLNKTNVKFLAITTDCLQILAYGNQESKLIILASGGPQALVNIMRTYTYEKLLWTTSRVLKVLSVCSSNKPAIVEAGGMQALGLHLTDPSQRLVQNCLWTLRNLSDAATKQEGMEGLLGTLVQLLGSDDINVVTCAAGILSNLTCNNYKNKMMVCQVGGIEALVRTVLRAGDREDITEPAICALAHLTSRHQEAEMAQNAVRLHYGLPVVVKLLHPPSHWPLIKATVGLIRNLALCPANHAPLREQGAIPRLVQLLVRAHQDTQRRTSMGGTQQQFVEGVRMEEIVEGCTGALHILARDVHNRIVIRGLNTIPLFVQLLYSPIENIQRVAAGVLCELAQDKEAAEAIEAEGATAPLTELLHSRNEGVATYAAAVLFRMSEDKPQDYKKRLSVELTSSLFRTEPMAWNETADLGLDIGAQGEPLGYRQDDPSYRSFHSGGYGQDALGMDPMMEHEMGGHHPGADYPVDGLPDLGHAQDLMDGLPPGDSNQLAWFDTDL	–	— (Interactions marked by — correspond to 60–100% of the wild type interaction)	— (Interactions marked by — correspond to 60–100% of the wild type interaction)	–	blocking the interaction; also recorded: no interaction with LEF-1/TCF-4	— (Interactions marked by — correspond to 60–100% of the wild type interaction)	–
Lys 354: human β-catenin mutant, Lys 354 substituted by alanine (arm 6) (protein, left off: large carriers; small tags and cut ends) LHNLSHHREGLLAIFKSGGIPALVKMLGSPVDSVLFYAITTLHNLLLHQEGAKMAVRLAGGLQKMVALLNKTNVKFLAITTDCLQILAYGNQESKLIILASGGPQALVNIMRTYTYEKLLWTTSRVLKVLSVCSSNAPAIVEAGGMQALGLHLTDPSQRLVQNCLWTLRNLSDAATKQEGMEGLLGTLVQLLGSDDINVVTCAAGILSNLTCNNYKNKMMVCQVGGIEALVRTVLRAGDREDITEPAICALRHLTSRHQEAEMAQNAVRLHYGLPVVVKLLHPPSHWPLIKATVGLIRNLALCPANHAPLREQGAIPRLVQLLVRAHQDTQRRTSMGGTQQQFVEGVRMEEIVEGCTGALHILARDVHNRIVIRGLNTIPLFVQLLYSPIENIQRVAAGVLCELAQDKEAAEAIEAEGATAPLTELLHSRNEGVATYAAAVLFRMSEDKPQDYKKRLSVELTSSLFRTEPMAWNETADLGLDIGAQGEPLGYRQDDPSYRSFHSGGYGQDALGMDPMMEHEMGGHHPGADYPVDGLPDLGHAQDLMDGLPPGDSNQLAWFDTDL	–	— (Interactions marked by — correspond to 60–100% of the wild type interaction)	43%	–	–	54%	–
